# Experimental data reported in doi:10.1101/2024.10.14.618219.
# Molecular target: microtubules polymerized from porcine tubulin (porcine) (UniProt Q2XVP4)
# Assay: single-molecule TIRF microscopy on microtubules
# Sequence of Kif3A^ΔC103-Kif3B (Q9Y496 1-596, stated change not applied): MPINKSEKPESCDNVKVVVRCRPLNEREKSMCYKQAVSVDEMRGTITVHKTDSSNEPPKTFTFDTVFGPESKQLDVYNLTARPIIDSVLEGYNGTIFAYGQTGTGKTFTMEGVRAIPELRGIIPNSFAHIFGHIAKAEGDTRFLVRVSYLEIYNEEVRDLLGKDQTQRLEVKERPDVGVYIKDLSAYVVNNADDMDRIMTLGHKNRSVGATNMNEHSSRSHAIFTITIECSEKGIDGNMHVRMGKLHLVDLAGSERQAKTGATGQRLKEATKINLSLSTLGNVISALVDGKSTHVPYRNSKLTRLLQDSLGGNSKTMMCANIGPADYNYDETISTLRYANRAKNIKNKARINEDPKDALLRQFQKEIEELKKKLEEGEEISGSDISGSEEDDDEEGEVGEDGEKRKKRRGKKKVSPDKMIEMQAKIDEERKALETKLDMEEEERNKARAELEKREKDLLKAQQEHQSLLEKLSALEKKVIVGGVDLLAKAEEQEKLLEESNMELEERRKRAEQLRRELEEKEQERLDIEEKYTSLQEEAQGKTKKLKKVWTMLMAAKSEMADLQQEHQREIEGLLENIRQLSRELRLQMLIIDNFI
# Sequence of Kif3A^ΔC103-Kif3B (O15066 whole entry, stated change not applied): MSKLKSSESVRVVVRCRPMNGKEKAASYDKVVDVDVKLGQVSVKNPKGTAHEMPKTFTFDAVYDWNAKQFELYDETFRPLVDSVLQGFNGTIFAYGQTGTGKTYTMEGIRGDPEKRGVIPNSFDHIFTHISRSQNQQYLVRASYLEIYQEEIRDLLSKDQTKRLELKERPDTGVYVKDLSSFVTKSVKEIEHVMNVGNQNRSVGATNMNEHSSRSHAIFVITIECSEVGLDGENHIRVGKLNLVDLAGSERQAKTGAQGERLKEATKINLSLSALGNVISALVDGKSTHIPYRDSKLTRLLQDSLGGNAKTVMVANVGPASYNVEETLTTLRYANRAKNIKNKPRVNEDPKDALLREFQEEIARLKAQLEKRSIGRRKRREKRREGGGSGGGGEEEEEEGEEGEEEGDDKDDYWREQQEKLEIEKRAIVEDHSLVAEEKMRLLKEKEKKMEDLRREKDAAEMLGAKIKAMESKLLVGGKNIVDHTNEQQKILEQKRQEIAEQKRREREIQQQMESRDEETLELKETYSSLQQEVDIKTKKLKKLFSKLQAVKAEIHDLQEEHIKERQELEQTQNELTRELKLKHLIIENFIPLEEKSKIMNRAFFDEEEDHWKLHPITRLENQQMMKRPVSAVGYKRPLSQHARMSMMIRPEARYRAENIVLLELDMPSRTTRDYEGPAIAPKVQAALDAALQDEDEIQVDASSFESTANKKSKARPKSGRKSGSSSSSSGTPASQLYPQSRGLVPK
# Sequence of Kif3A^ΔC89-Kif3B (Q9Y496 1-610, stated change not applied): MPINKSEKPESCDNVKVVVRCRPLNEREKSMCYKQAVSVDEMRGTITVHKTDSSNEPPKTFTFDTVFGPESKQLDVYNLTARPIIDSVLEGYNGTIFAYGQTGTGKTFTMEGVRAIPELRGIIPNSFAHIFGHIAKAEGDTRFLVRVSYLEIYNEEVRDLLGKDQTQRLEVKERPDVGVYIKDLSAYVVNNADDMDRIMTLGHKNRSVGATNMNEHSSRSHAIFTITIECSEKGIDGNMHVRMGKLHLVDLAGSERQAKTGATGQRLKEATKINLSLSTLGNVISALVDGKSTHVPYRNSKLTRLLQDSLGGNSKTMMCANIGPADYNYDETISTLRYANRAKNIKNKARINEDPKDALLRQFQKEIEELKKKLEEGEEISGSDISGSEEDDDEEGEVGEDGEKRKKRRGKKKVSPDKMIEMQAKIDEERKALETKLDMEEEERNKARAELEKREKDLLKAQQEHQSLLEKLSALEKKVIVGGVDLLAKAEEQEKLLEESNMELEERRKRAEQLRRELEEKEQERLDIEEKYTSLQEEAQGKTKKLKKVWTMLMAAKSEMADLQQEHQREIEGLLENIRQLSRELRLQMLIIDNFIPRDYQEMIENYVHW
# Sequence of Kif3A^ΔC89-Kif3B (O15066 whole entry, stated change not applied): as the sequence (O15066 whole entry, stated change not applied) above
row,landing rate (μm^-1 nM^-1 min^-1),Substance
1,0.6,Kif3A^ΔC89-Kif3B (from UniProt Q9Y496 1-610; O15066 1-747) (complex)
2,0.6,Kif3A^ΔC103-Kif3B (from UniProt Q9Y496 1-596; O15066 1-747) (complex)
